In patent publication US20130040882A1, “USE OF FIBROBLAST GROWTH FACTOR FRAGMENTS” (NOVARTIS AG, priority 2003, published 2013):
Where “and” joins values, the source holds several entries; their conditions need not be identical. Equal values may be shown once.

Columns and labels:
[1] = test system: transcript levels in several organs; experiment: In vivo gene expression profiling screen of peptides in mice (Example I); conditions: administration to mice
Procedure: In this EXAMPLE, 100 unknown chemically synthesized peptides are functionalized using the discovery method of the invention. Most of these peptides are present in human plasma.
As a control, twenty reference drugs are concurrently investigated with the discovery method of the invention. For this screening, one control and four treated groups of six males are treated for two weeks by daily administration by the subcutaneous route of the proteins. The reference drugs can be active for treating conditions in the areas of glaucoma, neuroprotection, neovascularisation, antiangiogenesis, acne, asthma and allergy, cardiovascular diseases, neurological disorder, pain, diabetes, hypercholesterolemia, osteoporosis and oncology.
The expectations from those selected active peptides are that (a) several potential therapeutic drugs could be identified; (b) target peptides for therapeutic antibodies could be identified; (c) new targets for research, deduced from the reconstructed biochemical pathways, could be identified; and (d) biomarkers, to be used to develop diagnostic tests could be identified. […] The protein/peptide selection rate is approximately 20%. The selection/prioritization criteria are the type of activity, the therapeutic interest and the suspected toxicity.

[2] = test system: Insulin-Like Growth Factor Binding Protein 2; experiment: Serum determination of insulin-like growth factor binding protein 2 in FGF23CTP-treated monkeys; type: in vivo, cynomolgus monkey
Procedure: At the end of the treatment period samples from all organs are subjected to snap freezing at necropsy and are analyzed with GeneChip® expression profiling.
Serum levels were determined for IGFB2 and found to be decreased, in agreement with the decreased transcript levels in several organs, including the liver.

retinal neuronal layers = test system: retinal neuronal layers
Procedure: The total thickness of the outer nuclear layer, the inner nuclear layer and the ganglion cell layer is measured using a standardized magnification after paraffin embedding and hematoxylin and eosin (HE)-staining. Three sections of each eye are measured at three locations each. […] Sections are encoded for evaluation.

[3] = right eye (FGF23CTP), average of all measurements of three animals, x200 magnification

B1: FGF23CTP: unique 75-mer COOH-terminal peptide of FGF-23, SEQ ID NO: 2 (peptide, listed as Homo sapiens)
chain: HTRSAEDDSERDPLNVLKPRARMTPAPASCSQELPSAEDNSPMASDPLGVVRGGRVNTHAGGTGPEGCRPFAKFI
Transcript level changes in several organs (activity) [1]: active | Serum Insulin-Like Growth Factor Binding Protein 2, mean ([2]; 100 μg/day): 893 ng/mL | Serum Insulin-Like Growth Factor Binding Protein 2, conc ([2]; individual animals, 100 μg/day): 987.6 ng/mL and 596.7 ng/mL and 749.5 ng/mL and 1239.8 ng/mL | Serum protein levels of circulating IGF2-binding protein ([2]; treated animals, two weeks sc): decreased | Thickness of the inner nuclear layer, outer nuclear layer, ganglion cell layer vs PBS (retinal neuronal layers; five days after injection): no marked difference | Ganglion cell layer thickness, average (retinal neuronal layers; [3]): 2.25 mm | Inner nuclear layer thickness, average (retinal neuronal layers; [3]): 6 mm | Outer nuclear layer thickness, average (retinal neuronal layers; [3]): 10.63 mm | Neuronal damage in the eye (retinal neuronal layers; three animals, five days after injection): not to induce any neuronal damage
